Test results as given in US20120045437A1 (BOARD OF REGENTS OF THE UNIVERSITY OF OKLAHOMA, published 2012).

Tests used:
[1] = target: T1, VLDLR-N-His (human, UniProt P98155 28-797, limits assumed); assay: Western blot, recombinant VLDLR-N-His
T1 construct: domain: VLDLR-N; also called very low-density lipoprotein receptor; not shown: 6x histidine tag
Description: (§1) FIG. 15 illustrates specificity of Anti-LRP6-1 on LRP6 ectodomain. A: HEK-293T cells were separately transfected with plasmids expressing LRP5-Flag and LRP6-Myc, with an empty vector as control. Forty-eight hours post-transfection, total cell lysates (50 μg) were applied for Western blot analysis using Anti-LRP6-1 and an anti-Flag antibody (M2). B: The ability of Anti-LRP6-1 to recognize endogenous LRP6 in different species. Total cell lysates (50 μg) from each cell line were applied for Western blot analysis using Anti-LRP6-1. C: Conditioned media containing LDLRN-Myc, LRP5N-Myc and LRP6N-Myc, and purified recombinant peptides of VLDLR-N-His, LRP6E1E2-His and LRP6E3E4-His were loaded for Western blot analysis using Anti-LRP6-1, anti-His and anti-Myc antibodies. D: Immuno-localization of LRP6 in the retinal cryosections. FITC-labeled Anti-LRP6-1 was used to determine the cellular localization of LRP6 in the retinas of rats (D1-D6) and mice (D7-D12). Non-specific mouse IgG was labeled with FITC and used as a negative control (D1, D4, D7, D10). The sections were stained with FITC-Anti-LRP6-1 (D2, D5, D8, D11). FITC-Anti-LRP6-1 pre-absorbed with 10 μg/ml purified LRP6E1E2-His antigen was used for staining to confirm the specificity of the immunosignals of LRP6 (D3, D6, D9, D12).

[2] = target: T2, LRP5-Flag (human full-length LRP5) (human, UniProt O75197 32-1615); assay: Western blot, total lysates (50 ug) of transfected HEK-293T cells
T2 construct: Tested as total lysate of transfected HEK-293T cells in a Western blot; not shown: Flag tag
T2 sequence (O75197 32-1615 limits assumed): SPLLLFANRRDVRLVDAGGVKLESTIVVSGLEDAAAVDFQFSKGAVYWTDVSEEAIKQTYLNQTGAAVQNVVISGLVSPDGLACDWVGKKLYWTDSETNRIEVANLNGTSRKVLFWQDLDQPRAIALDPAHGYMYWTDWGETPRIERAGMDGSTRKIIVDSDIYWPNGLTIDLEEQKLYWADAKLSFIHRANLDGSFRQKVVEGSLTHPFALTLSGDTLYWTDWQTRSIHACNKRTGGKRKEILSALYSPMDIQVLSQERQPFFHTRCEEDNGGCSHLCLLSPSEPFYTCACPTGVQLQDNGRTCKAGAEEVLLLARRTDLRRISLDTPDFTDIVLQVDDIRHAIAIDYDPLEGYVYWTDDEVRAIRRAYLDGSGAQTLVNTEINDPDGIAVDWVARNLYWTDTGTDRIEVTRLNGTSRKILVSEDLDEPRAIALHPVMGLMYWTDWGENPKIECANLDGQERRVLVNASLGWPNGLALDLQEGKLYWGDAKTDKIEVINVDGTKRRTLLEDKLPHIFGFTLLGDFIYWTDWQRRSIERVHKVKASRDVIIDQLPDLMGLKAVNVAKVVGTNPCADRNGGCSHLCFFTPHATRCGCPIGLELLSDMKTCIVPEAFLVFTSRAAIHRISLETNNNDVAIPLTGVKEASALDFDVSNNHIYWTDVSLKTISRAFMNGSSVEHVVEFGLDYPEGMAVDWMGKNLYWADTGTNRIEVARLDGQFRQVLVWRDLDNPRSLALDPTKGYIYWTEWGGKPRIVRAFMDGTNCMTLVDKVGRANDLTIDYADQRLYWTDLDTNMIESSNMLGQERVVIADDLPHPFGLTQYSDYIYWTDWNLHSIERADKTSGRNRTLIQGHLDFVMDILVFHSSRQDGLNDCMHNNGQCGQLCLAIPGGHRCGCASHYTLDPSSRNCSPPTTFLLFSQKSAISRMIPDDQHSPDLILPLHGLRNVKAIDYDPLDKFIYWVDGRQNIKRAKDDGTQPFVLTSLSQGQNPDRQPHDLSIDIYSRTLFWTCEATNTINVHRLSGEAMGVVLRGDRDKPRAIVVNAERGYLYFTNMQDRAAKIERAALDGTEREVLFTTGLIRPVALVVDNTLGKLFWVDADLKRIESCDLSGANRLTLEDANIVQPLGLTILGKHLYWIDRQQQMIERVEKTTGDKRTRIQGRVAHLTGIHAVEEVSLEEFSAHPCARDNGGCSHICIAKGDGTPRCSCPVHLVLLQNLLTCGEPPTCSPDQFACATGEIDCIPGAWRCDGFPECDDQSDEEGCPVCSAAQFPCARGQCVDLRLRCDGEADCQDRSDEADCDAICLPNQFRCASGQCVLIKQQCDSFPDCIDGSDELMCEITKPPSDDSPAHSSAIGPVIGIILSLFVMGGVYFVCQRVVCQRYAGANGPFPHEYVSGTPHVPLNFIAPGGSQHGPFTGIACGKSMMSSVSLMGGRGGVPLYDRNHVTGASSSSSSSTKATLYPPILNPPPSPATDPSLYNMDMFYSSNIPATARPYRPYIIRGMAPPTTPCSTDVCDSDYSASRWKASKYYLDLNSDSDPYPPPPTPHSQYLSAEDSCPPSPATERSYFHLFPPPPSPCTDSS
Description: as §1, with “A: HEK-293T” for “FIG. 15 illustrates specificity of Anti-LRP6-1 on LRP6 ectodomain. A: HEK-293T”, “D9, D12). […]” for “D9, D12).”

[3] = target: endogenous human LRP6 (human, UniProt O75581 20-1613); assay: cell-based or functional assay
Sequence of endogenous human LRP6 (O75581 20-1613 limits assumed): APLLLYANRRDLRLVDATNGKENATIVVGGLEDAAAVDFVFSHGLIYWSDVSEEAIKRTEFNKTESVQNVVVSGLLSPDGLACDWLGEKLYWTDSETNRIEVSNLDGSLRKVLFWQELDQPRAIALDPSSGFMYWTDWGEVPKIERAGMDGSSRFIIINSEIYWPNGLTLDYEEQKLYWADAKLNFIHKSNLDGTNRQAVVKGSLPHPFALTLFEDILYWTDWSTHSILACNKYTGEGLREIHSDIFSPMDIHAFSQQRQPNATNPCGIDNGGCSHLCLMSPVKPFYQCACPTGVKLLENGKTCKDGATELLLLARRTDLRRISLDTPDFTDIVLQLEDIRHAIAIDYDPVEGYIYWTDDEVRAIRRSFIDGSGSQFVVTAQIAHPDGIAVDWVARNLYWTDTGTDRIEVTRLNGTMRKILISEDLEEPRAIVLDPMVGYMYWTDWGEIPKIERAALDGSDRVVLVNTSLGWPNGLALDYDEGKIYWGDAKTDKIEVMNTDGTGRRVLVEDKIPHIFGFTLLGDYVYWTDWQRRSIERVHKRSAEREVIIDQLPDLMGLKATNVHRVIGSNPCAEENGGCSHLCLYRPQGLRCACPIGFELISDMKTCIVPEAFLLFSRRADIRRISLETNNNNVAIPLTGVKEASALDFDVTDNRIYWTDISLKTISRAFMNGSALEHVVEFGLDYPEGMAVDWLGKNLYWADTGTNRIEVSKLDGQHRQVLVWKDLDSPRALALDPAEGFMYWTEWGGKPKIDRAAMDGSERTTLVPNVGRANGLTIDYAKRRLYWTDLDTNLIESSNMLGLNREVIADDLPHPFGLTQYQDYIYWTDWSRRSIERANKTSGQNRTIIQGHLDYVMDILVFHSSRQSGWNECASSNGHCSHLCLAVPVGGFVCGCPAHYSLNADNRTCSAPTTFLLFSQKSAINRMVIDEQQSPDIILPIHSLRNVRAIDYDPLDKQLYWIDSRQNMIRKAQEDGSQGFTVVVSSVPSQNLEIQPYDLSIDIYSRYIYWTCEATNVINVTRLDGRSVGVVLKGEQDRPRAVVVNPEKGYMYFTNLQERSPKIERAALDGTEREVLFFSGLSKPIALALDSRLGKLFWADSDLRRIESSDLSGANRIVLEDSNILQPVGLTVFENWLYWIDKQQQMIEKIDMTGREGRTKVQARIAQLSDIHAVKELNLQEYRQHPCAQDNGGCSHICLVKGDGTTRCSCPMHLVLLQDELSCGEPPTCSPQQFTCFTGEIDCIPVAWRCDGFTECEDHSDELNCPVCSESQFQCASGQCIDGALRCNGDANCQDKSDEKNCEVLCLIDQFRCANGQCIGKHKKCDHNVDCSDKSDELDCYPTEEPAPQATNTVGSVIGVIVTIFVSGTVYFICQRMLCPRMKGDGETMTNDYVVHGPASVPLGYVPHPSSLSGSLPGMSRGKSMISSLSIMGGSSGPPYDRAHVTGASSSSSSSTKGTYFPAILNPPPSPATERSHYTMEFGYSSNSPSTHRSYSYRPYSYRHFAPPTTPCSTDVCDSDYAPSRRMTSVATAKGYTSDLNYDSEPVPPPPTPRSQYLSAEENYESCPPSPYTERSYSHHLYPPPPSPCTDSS

[4] = target: T3, endogenous mouse LRP6 (mouse, UniProt O88572 20-1613); assay: Western blot, total cell lysates
T3 construct: whole, on cells; Tested as total cell lysate (Western blot) and in mouse retinal cryosections (immunostaining); also called LRP6 (mouse)
T3 sequence (O88572 20-1613): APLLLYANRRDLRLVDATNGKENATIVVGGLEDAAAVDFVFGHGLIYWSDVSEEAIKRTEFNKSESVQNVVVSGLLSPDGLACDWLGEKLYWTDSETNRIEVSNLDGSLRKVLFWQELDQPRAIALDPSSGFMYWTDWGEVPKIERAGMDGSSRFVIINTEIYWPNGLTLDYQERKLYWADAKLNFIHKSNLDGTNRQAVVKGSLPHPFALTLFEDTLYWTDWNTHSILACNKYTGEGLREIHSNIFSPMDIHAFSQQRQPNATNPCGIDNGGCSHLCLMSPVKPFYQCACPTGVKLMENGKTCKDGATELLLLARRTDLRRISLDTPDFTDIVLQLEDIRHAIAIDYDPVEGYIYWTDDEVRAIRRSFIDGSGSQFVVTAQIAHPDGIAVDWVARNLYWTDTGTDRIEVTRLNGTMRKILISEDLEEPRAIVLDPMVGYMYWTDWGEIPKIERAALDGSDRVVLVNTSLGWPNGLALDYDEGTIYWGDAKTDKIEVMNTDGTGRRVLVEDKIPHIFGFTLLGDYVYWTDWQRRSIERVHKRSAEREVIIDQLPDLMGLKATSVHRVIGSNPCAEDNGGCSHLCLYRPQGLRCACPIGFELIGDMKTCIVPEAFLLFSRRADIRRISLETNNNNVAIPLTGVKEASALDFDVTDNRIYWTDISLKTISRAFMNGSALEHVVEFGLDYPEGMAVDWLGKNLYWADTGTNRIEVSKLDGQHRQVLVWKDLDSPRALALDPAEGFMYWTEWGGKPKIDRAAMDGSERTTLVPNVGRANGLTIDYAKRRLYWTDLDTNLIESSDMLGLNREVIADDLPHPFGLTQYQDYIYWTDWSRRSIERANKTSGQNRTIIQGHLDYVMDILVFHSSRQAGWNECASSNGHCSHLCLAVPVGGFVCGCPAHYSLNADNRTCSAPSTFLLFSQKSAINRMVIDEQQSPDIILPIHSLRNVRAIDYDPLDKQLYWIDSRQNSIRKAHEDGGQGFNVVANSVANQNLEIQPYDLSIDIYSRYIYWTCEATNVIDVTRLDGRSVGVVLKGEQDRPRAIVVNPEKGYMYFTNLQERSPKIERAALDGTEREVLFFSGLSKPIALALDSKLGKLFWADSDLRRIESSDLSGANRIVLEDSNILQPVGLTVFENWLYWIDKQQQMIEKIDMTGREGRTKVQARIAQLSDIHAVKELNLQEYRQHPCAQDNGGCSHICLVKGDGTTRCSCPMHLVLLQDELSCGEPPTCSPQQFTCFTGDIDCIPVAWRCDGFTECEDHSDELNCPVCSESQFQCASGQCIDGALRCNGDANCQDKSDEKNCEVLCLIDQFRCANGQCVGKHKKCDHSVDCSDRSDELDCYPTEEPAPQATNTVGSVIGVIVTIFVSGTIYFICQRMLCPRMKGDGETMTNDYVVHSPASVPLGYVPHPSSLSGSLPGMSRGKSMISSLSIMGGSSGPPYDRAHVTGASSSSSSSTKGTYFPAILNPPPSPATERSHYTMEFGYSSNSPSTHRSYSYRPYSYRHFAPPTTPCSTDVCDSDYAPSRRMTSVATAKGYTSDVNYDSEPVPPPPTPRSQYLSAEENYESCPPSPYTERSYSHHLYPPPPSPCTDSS
Description: as §1, with “A: HEK-293T” for “FIG. 15 illustrates specificity of Anti-LRP6-1 on LRP6 ectodomain. A: HEK-293T”, “D9, D12). […]” for “D9, D12).”

[5] = target: endogenous bovine LRP6 (bovine); assay: cell-based or functional assay
[6] = target: T4, LRP6E3E4-His (human, UniProt O75581 631-1244); assay: Western blot, purified recombinant fragment
T4 construct: Expressed in E. coli BL21(DE3); Only its E3E4 part stood in the assay; also called E3E4 domain of LRP6; not shown: His tag from pET28b+
T4 sequence: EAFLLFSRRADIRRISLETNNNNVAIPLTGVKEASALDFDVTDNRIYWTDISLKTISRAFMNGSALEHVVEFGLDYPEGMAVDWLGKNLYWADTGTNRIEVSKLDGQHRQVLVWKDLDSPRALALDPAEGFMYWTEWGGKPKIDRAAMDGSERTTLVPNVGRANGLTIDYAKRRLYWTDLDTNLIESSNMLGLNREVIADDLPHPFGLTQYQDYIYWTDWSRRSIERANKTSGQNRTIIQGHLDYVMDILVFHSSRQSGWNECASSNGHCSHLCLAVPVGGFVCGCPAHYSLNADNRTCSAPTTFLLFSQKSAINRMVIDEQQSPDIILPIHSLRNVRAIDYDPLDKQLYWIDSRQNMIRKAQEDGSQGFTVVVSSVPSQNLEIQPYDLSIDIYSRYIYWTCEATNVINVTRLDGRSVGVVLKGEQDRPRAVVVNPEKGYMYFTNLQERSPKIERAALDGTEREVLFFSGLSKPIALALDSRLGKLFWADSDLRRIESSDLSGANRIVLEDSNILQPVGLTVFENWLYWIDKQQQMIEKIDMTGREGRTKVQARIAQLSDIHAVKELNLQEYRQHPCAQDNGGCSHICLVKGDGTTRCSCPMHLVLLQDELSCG
Description: as §1

binding result [1]: no binding
binding result [2]: no binding
EC50 of inhibition of Wnt1-induced TOPFLASH activity (hTERT-RPE cells) [3]: ~20 µg/mL
EC50 of suppression of Wnt3A-induced Luciferase activity (TOPFLASH, hTERT-RPE cells) [3]: ~20 µg/mL
binding result [4]: binds
IC50 of inhibition of LRP6 phosphorylation (Wnt3a-containing medium, RCEC, Western blot) [5]: 210 to 440 nM
IC50 of inhibition of [14C]thymidine incorporation into RCEC (proliferation, 1% O2) [5]: 500 to 2000 nM
binding result [6]: no binding
B1: Anti-LRP6-1 (antibody, mouse IgG2, V domains shown)
VH: EVQLVESGGGLVQSKGSLKLSCAASGFTFNTYAMNWVRQAPGKGLEWVGRIRSKYNNYVTYYGDSVKDRFTISRDDSQSMLYLQMNNLKTEDTAMYYCVRQGRGSYAMDYWGQGTSVTVSS
VL: NIVMTQSPKSMSMSVGERVTLSCKASENVGTYVSWYQQKPEQSPKLLIYGASNRYTGVPDRFIGSGSATDFTLTIRSVQAEDLADYHCGQSYSYPTFGAGTKLELKR
notes: also called mAb2F1; 2F1
